PMC8013792, “Bacterial protein domains with a novel Ig‐like fold target human CEACAM receptors” (The EMBO Journal, 2021)

B1: IgSF (IgI3) domain of β protein, recombinant, biotinylated [modified: biotin, C-terminal] [Streptococcus agalactiae (GBS)] / recombinant CEACAM1 N-terminal domain, unglycosylated, 6xHis tagged [human] (parent)
chain 1: MAQLTTESMPFNVAEGKEVLLLVHNLPQQLFGYSWYKGERVDGNRQIVGYAIGTQQATPGPANSGRETIYPNASLLIQNVTQNDTGFYTLQVIKSDLVNEEATGQFHVY
chain 2: ANENNQQKIELTVSPENITVYEGEDVKFTVTAKSDSKTTLDFSDLLTKYNPSVSDRISTNYKTNTDNHKIAEITIKNLKLNESQTVTLKAKDDSGNVVEKTFTITVQKKEEKQLPSTGGS

Variants of: B1
Assay: flow cytometry on coated dynabeads
Conditions: with recombinant CEACAM1 N-terminal domain, parent: 390, read off a plot

First: chain 2 ANENNQQKIELTVSPENITVYEGEDVKFTVTAKSDSKTTLDFSDLLTKYNPAVSDRISTNYKTNTDNHKIAEITIKNLKLNESQTVTLKAKDDSGNVVEKTFTITVQKKEEKQLPSTGGS [chain 2 S52A]
Second: chain 2 ANENNQQKIELTVSPENITVYEGEDVKFTVTAKSDSKTTLDFSDALTKYNPSVSDRISTNYKTNTDNHKIAEITIKNLKLNESQTVTLKAKDDSGNVVEKTFTITVQKKEEKQLPSTGGS [chain 2 L45A]
The response (Geometric MFI) of the first is lower: 320 for the first, 350 for the second.
